Source: the Human Domainome abundance scans (Beltran et al. 2025)
± gives the uncertainty stated by the source.

Test: abundance fitness (aPCA) (normalised: wild type 0, dead -1); higher = more abundant; growth selection in yeast, the domain comes from the species named
Conditions: Homo sapiens
In the case of “Transcriptional activator Myb E151G, P10242”, the abundance fitness is reported as -0.815 ± 0.056.
In the case of “Transcriptional activator Myb G163D, P10242”, the abundance fitness is reported as -0.356 ± 0.086.
“Transcriptional activator Myb E168Q, P10242” showed an abundance fitness of -0.182 ± 0.13.
For “Transcriptional activator Myb T145M, P10242”, the abundance fitness was 0.117 ± 0.12.
Substance “Transcriptional activator Myb R191M, P10242” has an abundance fitness of -0.091 ± 0.13.
In the case of “Transcriptional activator Myb E168L, P10242”, the abundance fitness is reported as -0.419 ± 0.069.
With “Transcriptional activator Myb K144T, P10242” the abundance fitness was 0.101 ± 0.086.
Substance “Transcriptional activator Myb T188L, P10242” has an abundance fitness of -0.049 ± 0.053.
Work on “Transcriptional activator Myb N179T, P10242” yielded an abundance fitness of 0.026 ± 0.075.
Work on “Transcriptional activator Myb W147G, P10242” yielded an abundance fitness of -0.699 ± 0.036.
For “Transcriptional activator Myb A167E, P10242”, the abundance fitness was 0.009 ± 0.13.
In the case of “Transcriptional activator Myb W166P, P10242”, the abundance fitness is reported as -0.359 ± 0.15.
“Transcriptional activator Myb R191Y, P10242” showed an abundance fitness of -0.423 ± 0.16.
In the case of “Transcriptional activator Myb H184M, P10242”, the abundance fitness is reported as -0.623 ± 0.061.
“Transcriptional activator Myb W166Q, P10242” showed an abundance fitness of -0.708 ± 0.1.
Substance “Transcriptional activator Myb Y198M, P10242” has an abundance fitness of -0.01 ± 0.1.
Work on “Transcriptional activator Myb N183C, P10242” yielded an abundance fitness of -0.203 ± 0.12.
Substance “Transcriptional activator Myb I154D, P10242” has an abundance fitness of -0.5 ± 0.12.
With “Transcriptional activator Myb N179Q, P10242” the abundance fitness was -0.025 ± 0.078.
With “Transcriptional activator Myb V193Q, P10242” the abundance fitness was -0.14 ± 0.16.
With “Transcriptional activator Myb A170H, P10242” the abundance fitness was -0.716 ± 0.26.
For “Transcriptional activator Myb K143V, P10242”, the abundance fitness was -0.13 ± 0.087.
For “Transcriptional activator Myb E196G, P10242”, the abundance fitness was 0.007 ± 0.057.
For “Transcriptional activator Myb K182H, P10242”, the abundance fitness was -0.299 ± 0.16.
“Transcriptional activator Myb P174M, P10242” showed an abundance fitness of -0.329 ± 0.093.
“Transcriptional activator Myb M189W, P10242” gave an abundance fitness of -0.36 ± 0.093.
In the case of “Transcriptional activator Myb T148K, P10242”, the abundance fitness is reported as -0.212 ± 0.057.
Work on “Transcriptional activator Myb N183M, P10242” yielded an abundance fitness of 0.068 ± 0.11.
In the case of “Transcriptional activator Myb G163V, P10242”, the abundance fitness is reported as -0.537 ± 0.084.
With “Transcriptional activator Myb E194A, P10242” the abundance fitness was -0.055 ± 0.086.
“Transcriptional activator Myb S202W, P10242” showed an abundance fitness of -0.211 ± 0.083.
Work on “Transcriptional activator Myb A170E, P10242” yielded an abundance fitness of -0.285 ± 0.12.
“Transcriptional activator Myb E150L, P10242” gave an abundance fitness of -0.17 ± 0.064.
“Transcriptional activator Myb K182V, P10242” gave an abundance fitness of -0.176 ± 0.058.
With “Transcriptional activator Myb S202E, P10242” the abundance fitness was 0.042 ± 0.073.
“Transcriptional activator Myb N179P, P10242” gave an abundance fitness of -0.489 ± 0.097.
“Transcriptional activator Myb G175C, P10242” gave an abundance fitness of -0.171 ± 0.1.
For “Transcriptional activator Myb M189N, P10242”, the abundance fitness was -0.155 ± 0.14.
For “Transcriptional activator Myb G175Y, P10242”, the abundance fitness was -0.256 ± 0.14.
“Transcriptional activator Myb K143I, P10242” gave an abundance fitness of -0.233 ± 0.14.
With “Transcriptional activator Myb S187R, P10242” the abundance fitness was -0.054 ± 0.049.
“Transcriptional activator Myb W147A, P10242” showed an abundance fitness of -0.681 ± 0.043.
Substance “Transcriptional activator Myb N186E, P10242” has an abundance fitness of 0.037 ± 0.079.
With “Transcriptional activator Myb S187N, P10242” the abundance fitness was -0.161 ± 0.14.
Work on “Transcriptional activator Myb E201Q, P10242” yielded an abundance fitness of -0.061 ± 0.14.
For “Transcriptional activator Myb Y156S, P10242”, the abundance fitness was -0.036 ± 0.047.
Substance “Transcriptional activator Myb T148Y, P10242” has an abundance fitness of -0.766 ± 0.05.
“Transcriptional activator Myb T188S, P10242” gave an abundance fitness of -0.048 ± 0.053.
With “Transcriptional activator Myb W147K, P10242” the abundance fitness was -0.674 ± 0.06.
For “Transcriptional activator Myb L199S, P10242”, the abundance fitness was 0.041 ± 0.068.
“Transcriptional activator Myb E194V, P10242” showed an abundance fitness of -0.037 ± 0.095.
Substance “Transcriptional activator Myb W147D, P10242” has an abundance fitness of -0.699 ± 0.052.
Substance “Transcriptional activator Myb A180S, P10242” has an abundance fitness of -0.051 ± 0.083.
For “Transcriptional activator Myb E194M, P10242”, the abundance fitness was -0.229 ± 0.26.
With “Transcriptional activator Myb A170P, P10242” the abundance fitness was -0.809 ± 0.18.
Work on “Transcriptional activator Myb D152Y, P10242” yielded an abundance fitness of -0.38 ± 0.12.
For “Transcriptional activator Myb I169K, P10242”, the abundance fitness was -1.05 ± 0.15.
Work on “Transcriptional activator Myb L199C, P10242” yielded an abundance fitness of -0.076 ± 0.1.
With “Transcriptional activator Myb G197T, P10242” the abundance fitness was -0.15 ± 0.092.
“Transcriptional activator Myb L199T, P10242” gave an abundance fitness of -0.043 ± 0.092.
“Transcriptional activator Myb H184T, P10242” showed an abundance fitness of -1.07 ± 0.095.
For “Transcriptional activator Myb T145R, P10242”, the abundance fitness was -0.232 ± 0.071.
